Values quoted from earlier work as cited in PMC6628902.

Target: CXCL12 (Homo sapiens) (UniProt P48061)
Sequence (P48061 22-89): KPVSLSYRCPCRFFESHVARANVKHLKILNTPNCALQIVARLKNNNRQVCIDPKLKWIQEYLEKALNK

CXCR4, sequence (P61073 whole entry): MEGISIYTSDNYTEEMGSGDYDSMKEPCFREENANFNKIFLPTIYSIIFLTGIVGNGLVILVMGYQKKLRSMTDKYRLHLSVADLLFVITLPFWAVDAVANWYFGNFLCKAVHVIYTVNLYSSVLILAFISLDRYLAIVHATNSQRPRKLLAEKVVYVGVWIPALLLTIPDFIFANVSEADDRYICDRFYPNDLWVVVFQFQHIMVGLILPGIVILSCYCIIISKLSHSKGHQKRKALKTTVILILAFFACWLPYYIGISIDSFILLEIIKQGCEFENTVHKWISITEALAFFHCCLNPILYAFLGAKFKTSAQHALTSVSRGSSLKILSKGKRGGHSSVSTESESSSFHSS

Kd: 4.5 nM
Substance: CXCR4 (from UniProt P61073)
